In assay [1] the test system is human T cell clones T-50 and T-87. Description: Peptide-specific T cell activation with melanoma cells as antigen-presenting cells, H3-thymidine incorporation. The format is cell-based. Particulars: melanoma cells as APC, tetanus toxoid peptide p4; CIITA transfected vs 48 hours interferon gamma. The procedure:
FIG. 9. Activation of human T cell clones with transfectants and interferon-stimulated cells used as APC's. Three types of cells were tested as APC'S: Untransfected melanoma cell line, MHC class II negative (o); The same cell line following 48 hours of exposure to […] of interferon gamma, MHC class II positive (black square ); The same cell line previously transfected with CIITA cDNA, MHC class it positive (black triangle). These cells were treated with various concentrations of p4, a tetanus toxoid peptide, at the concentrations indicated, fixed by UV light and incubated with two different human T cell clones specific for that peptide, T-50 and T-87. The extent of T cell activation was measured by incorporation of […] in a standard assay, and expressed as “stimulation index”.
Cells where the expression of MHC class II molecules had been induced by the transactivator gene CIITA (as CIITA cDNA) were tested for their ability to bind exogenously provided peptides and to present such peptides to T cell clones. These CIITA transfectants were compared with the same cells where MHC class II expression had been induced by interferon gamma. […] Peptide-specific T cell activation by these two types of MHC class II positive cells was measured by H3-thymidine incorporation, expressed as a stimulation index. […]

The test system of assay [2] is MHC class II positive cells. Description: Peptide binding ability of MHC class II positive melanoma cells. Particulars: CIITA transfectants vs interferon activated. The assay is classed as cell-based, human. As for the experimental part:
Cells where the expression of MHC class II molecules had been induced by the transactivator gene CIITA (as CIITA cDNA) were tested for their ability to bind exogenously provided peptides and to present such peptides to T cell clones. These CIITA transfectants were compared with the same cells where MHC class II expression had been induced by interferon gamma. The two types of cells expressed MHC class II molecules at the surface at a similar level. […] Peptide-specific T cell activation by these two types of MHC class II positive cells was measured by H3-thymidine incorporation, expressed as a stimulation index. In this particular experiment, melanoma cells were used as antigen-presenting cells.
In agreement with these functional results, the peptide binding ability of these two types of MHC class II positive cells was drastically different, being low in the interferon activated cells and high in the CIITA transfectants. Thus, CIITA induces the expression of MHC class II molecules that are unusual in their highly efficient capacity to bind and to present peptides to T lymphocytes, leading to activation of these lymphocytes.

The text below walks through data of patent US20020155542A1, “Inhibitors for suppressing the activity of proteins displaying CIITA activity, methods for their identification and pharmaceutical compositions” (priority 1994, published 2002).

B1: interferon gamma (protein, UniProt P01579 24-161, looked up)
Interferon gamma: QDPYVKEAENLKKYFNAGHSDVADNGTLFLGILKNWKEESDRKIMQSQIVSFYFKLFKNFKDDQSIQKSVETIKEDMNVKFFNSNKKKRDDFEKLTNYSVTDLNVQRKAIHELIQVMAELSPAAKTGKRKRSQMLFRG
notes: lymphokine used to induce MHC class II expression in melanoma cells, comparator to CIITA transfection
For B1, the “peptide-specific T cell activation (stimulation index)” value in assay [1] is “failed to induce significant T cell activation”. Moreover, in assay [2], the peptide binding ability entry is listed as “low”.
